Data on one substance can be found in patent publication US20060216279A1.

As a reminder, the Kd is the free concentration of one partner at which half of the binding sites on the other are occupied at equilibrium, for simple one-to-one binding. High values mean a looser complex, low ones a tighter complex. As usually defined, the koff is a measure of how fast the partners let go of each other. Lower therefore signals slow dissociation. What is called kon is a measure of how fast the partners come together. A lower kon goes with slower complex formation. One may read the t½ as the time in which the quantity being followed falls by half. Read a low t½ as rapid decline.

The assay deals with rmGDF8 (R&D) (mouse (from the label rmGDF8 only)) (UniProt O08689). In words: Biacore, trap captured on amine-coupled Protein A (CM5), rmGDF8 0.312-20 nM as analyte. Background: In SPR one partner is held on a chip, and binding of the other changes the refractive index at the surface.
Sequence of UniProt O08689 (O08689 268-376 limits assumed): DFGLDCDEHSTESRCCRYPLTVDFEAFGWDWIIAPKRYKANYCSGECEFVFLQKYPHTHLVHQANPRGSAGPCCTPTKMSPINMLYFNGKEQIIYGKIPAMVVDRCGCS

On to hGDF8(1-38, 43-64)-hFc (Fc fusion), for which the Kd is 0.0133 nM, the off-rate constant (koff) was found to be 6.2e-05 s⁻¹, the kon amounted to 4.66e+06 M⁻¹ s⁻¹ and the t½ was determined as 3.1 h.
